What all share (settings): both partners purified
Assay [1] concerns the target T1, IQGAP1 GRD1-CT (aa 863-1657) (human, UniProt P46940 863-1657).
T1 construct: human IQGAP1, GRD, RGCT and CT domains, aa 863-1657; The GST tag was cleaved 'if needed'; also called C-terminal half of IQGAP1; C-terminal 795 amino acids of IQGAP1
T1 sequence (looked up): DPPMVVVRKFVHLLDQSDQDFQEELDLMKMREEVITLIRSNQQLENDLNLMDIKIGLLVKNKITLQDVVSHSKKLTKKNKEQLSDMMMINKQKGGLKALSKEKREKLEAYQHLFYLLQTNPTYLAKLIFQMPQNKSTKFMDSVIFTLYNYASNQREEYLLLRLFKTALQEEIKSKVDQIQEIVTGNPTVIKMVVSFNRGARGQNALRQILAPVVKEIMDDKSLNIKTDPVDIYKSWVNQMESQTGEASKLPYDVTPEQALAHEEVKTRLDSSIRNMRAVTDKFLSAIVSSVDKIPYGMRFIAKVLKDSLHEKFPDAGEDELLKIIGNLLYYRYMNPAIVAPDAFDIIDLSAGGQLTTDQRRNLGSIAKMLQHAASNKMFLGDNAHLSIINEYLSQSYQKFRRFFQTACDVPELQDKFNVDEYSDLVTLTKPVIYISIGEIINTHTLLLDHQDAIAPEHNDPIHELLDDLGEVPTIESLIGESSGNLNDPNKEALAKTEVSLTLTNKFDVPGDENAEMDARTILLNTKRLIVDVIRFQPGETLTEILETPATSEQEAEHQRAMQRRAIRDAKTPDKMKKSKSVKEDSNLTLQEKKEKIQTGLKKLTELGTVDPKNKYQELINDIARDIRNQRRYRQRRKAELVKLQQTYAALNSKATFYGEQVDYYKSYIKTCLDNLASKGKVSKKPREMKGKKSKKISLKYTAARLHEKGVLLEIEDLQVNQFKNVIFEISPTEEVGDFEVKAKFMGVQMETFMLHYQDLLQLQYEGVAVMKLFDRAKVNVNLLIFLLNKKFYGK
Nature of the assay: fluorescence polarisation; IQGAP1 variant titrated to mGDP-bound (inactive) RHO protein (1 μM), same conditions as with mGppNHp; 30 mM Tris/HCl pH 7.5, 150 mM NaCl, 5 mM MgCl2, 3 mM DTT, 25 °C. (In general: Polarisation of emitted light reports the rotation of a fluorescent probe.)

The target in assay [2] is T1, IQGAP1 GRD1-CT (aa 863-1657). Nature of the assay: stopped-flow fluorometry; tGppNHp (tamra-GppNHp)-bound CDC42 or CDC42 Q61L (0.2 μM) rapidly mixed with IQGAP1 variant (2-10 μM GRD1-CT for Q61L); Kd = koff/kon; 30 mM Tris-HCl pH 7.5, 10 mM KH2PO4/K2HPO4, 5 mM MgCl2, 3 mM DTT.
In assay [3] the target is T2, IQGAP1 GRD1-RGCT S1443E (aa 877-1558) (human, UniProt P46940 877-1558, S1443E).
T2 construct: human IQGAP1 aa 877-1558 with the phosphomimetic mutation S1443E (printed as S1143E in the methods, S1443E everywhere else), from the vector pET46 EkLIC; source: E. coli (pLysS BL21(DE3), CodonPlusRIL or BL21(Rosetta)), purified (Ni-NTA, gel filtration)
T2 sequence (looked up): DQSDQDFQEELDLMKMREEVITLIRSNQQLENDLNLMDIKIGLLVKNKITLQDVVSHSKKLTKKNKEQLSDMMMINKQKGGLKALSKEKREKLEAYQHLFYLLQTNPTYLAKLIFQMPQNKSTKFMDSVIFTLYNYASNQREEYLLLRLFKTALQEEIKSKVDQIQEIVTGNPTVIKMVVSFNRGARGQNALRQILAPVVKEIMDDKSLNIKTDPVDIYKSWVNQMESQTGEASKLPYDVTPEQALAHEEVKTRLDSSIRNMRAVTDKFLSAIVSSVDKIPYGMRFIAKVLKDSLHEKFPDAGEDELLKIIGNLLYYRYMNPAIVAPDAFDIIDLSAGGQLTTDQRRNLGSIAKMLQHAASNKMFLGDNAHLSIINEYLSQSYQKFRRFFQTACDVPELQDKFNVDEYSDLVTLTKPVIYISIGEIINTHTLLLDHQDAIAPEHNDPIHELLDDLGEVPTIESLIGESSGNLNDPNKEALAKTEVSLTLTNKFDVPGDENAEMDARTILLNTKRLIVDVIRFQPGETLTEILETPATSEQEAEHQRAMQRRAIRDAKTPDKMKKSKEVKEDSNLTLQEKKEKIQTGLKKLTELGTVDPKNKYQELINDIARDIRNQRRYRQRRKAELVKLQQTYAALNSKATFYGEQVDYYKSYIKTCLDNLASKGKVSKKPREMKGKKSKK
The description is as above.

B1: CDC42 (aa 1-178) (domain or fragment)
chain: not shown
notes: human CDC42, C-terminally truncated, aa 1-178; Loaded non-covalently with mGppNHp, tGppNHp, mGDP or non-fluorescent GppNHp; the nucleotide is named in the format of each assay; also called CDC42^WT; CDC42-mGppNHp
What is called Kd is a measure of binding affinity in units of concentration. A low value points to a tighter complex. In the case of B1, the Kd in assay [1] amounted to 95.1 µM; in assay [2] it was 380 nM; in assay [3], 4.19 µM.

The record behind these values is publication PMC5159498, “IQGAP1 Interaction with RHO Family Proteins Revisited” (The Journal of Biological Chemistry, 2016).
